Where “and” joins values, the source holds several entries; their conditions need not be identical. Equal entries are not always repeated. Where two headings read alike, the source gives them in different places.
Experiment: C4H enzyme assay: para-hydroxylation of cinnamic acid by yeast microsomes, HPLC quantification of p-coumarate
Assay type: biochemical
Conditions: for Km: Arabidopsis C4H in WAT11 yeast microsomes, substrate cinnamic acid; for Turnover (min^−1 ± SD), CO difference spectrum: P450 concentration from CO difference spectroscopy; for turnover rate, calculated using P450 concentrations from CO difference spectroscopy: spectroscopic P450 quantification
Method: C4H assays were carried out in the presence of various concentrations of cinnamic acid as previously described (Humphreys et al., 1999). Briefly, an NADPH regenerating system consisting of 1 mM NADP^+, 10 mM glucose-6-phosphate, and 1 unit of glucose-6-phosphate dehydrogenase (Sigma, St. Louis, Mo.) was pre-incubated at 30° C. for 5 min to generate NADPH in a final volume of 450 PL of assay buffer. Assays were initiated by the addition of 50 μL of appropriately diluted microsomes and were incubated at 30° C. for 20 min before the reactions were stopped with 100 μL of 3N HCl. Samples were centrifuged for 20 min at 14,000×g and then analyzed by HPLC (Shimadzu Corp., Kyoto, Japan) using a Microsorb-MV C-18 column (Varian Analytical Instruments, Walnut Creek, Calif.) using the following method: solvent A, 1.5% acetic acid in water; solvent B, acetonitrile; flow rate of 1 mL min^−1; 0 to […] in 1.5 min, […], 35 to 100% B in 1 min, 100% B for 5 min. Reaction product was quantified by UV detection at 308 nm. Assays conducted with microsomes isolated from yeast transformed with pYeDP60 served as negative controls.
To evaluate the impact of introducing an amino-terminal FLAG epitotope on C4H enzymatic activity, kinetic parameters of both native and FLAG-C4H were determined using the same microsomal fractions used for protein quantification. It is important to note that the WAT11 yeast strain was chosen because this strain is engineered to express the Arabidopsis P450 reductase gene ATR1 under the control of the same galactose promoter used to drive P450 expression, eliminating the need to reconstitute the P450/P450 reductase system. Consistent with subcellular targeting of wild-type C4H expressed in yeast, both the native and FLAG-C4H activity was found in the microsomal fraction. […] Turnover rates of native and FLAG-C4H were also evaluated, using both spectroscopic and immunological P450 quantitation. When calculated using P450 concentrations obtained from CO difference spectroscopy, native C4H and FLAG-C4H turnover rates were determined to be 28±0.1 and 83±2.0 min^1, respectively. This difference, although significant, may be associated with variability in reductase activity in this heterologous expression system (data not shown). In comparison to CO difference spectroscopy, the lower concentration of FLAG-C4H obtained by Midwestern blot gives a correspondingly higher turnover rate of 380±7 min^−1.

[1] = P450 concentration from Midwestern blot

Molecule | Km (n=3, read-out: Km app. (±SD)) [µM] | Km (read-out: Km^aPP) [µM] | Turnover (min^−1 ± SD), CO difference spectrum [min⁻¹] | turnover rate, calculated using P450 concentrations from CO difference spectroscopy [min^1] | Turnover (min^−1 ± SD), Midwestern blot [1] [min⁻¹] | turnover rate, calculated using immunological quantification [1] [min^1] | Turnover (min^−1 ± SD), Midwestern blot (P450 concentration from Midwestern blot, listed as FLAG-C4H) [min⁻¹] | turnover rate, calculated using P450 concentrations from CO difference spectroscopy (listed as FLAG-C4H)
Wild type C4H: Arabidopsis P450 cinnamate 4-hydroxylase (C4H) expressed in yeast from pYeDP60-C4H (protein, UniProt P92994 1-505, looked up) Trans-cinnamate …: MDLLLLEKSLIAVFVAVILATVISKLRGKKLKLPPGPIPIPIFGNWLQVGDDLNHRNLVDYAKKFGDLFLLRMGQRNLVVVSSPDLTKEVLLTQGVEFGSRTRNVVFDIFTGKGQDMVFTVYGEHWRKMRRIMTVPFFTNKVVQQNREGWEFEAASVVEDVKKNPDSATKGIVLRKRLQLMMYNNMFRIMFDRRFESEDDPLFLRLKALNGERSRLAQSFEYNYGDFIPILRPFLRGYLKICQDVKDRRIALFKKYFVDERKQIASSKPTGSEGLKCAIDHILEAEQKGEINEDNVLYIVENINVAAIETTLWSIEWGIAELVNHPEIQSKLRNELDTVLGPGVQVTEPDLHKLPYLQAVVKETLRLRMAIPLLVPHMNLHDAKLAGYDIPAESKILVNAWWLANNPNSWKKPEEFRPERFFEEESHVEANGNDFRYVPFGVGRRSCPGIILALPILGITIGRMVQNFELLPPPGQSKVDTSEKGGQFSLHILNHSIIVMKPRNC | 0.7 ± 0.01 | 0.7 ± 0.01 | 28 ± 0.1 | 28±0.1 |  |  |  | 
FLAG-tagged C4H: amino-terminal FLAG-epitope tagged C4H expressed in yeast from pYeDP60-FC4H (protein, UniProt P92994 1-505, looked up, N-terminal FLAG tag) Trans-cinnamate …: MDLLLLEKSLIAVFVAVILATVISKLRGKKLKLPPGPIPIPIFGNWLQVGDDLNHRNLVDYAKKFGDLFLLRMGQRNLVVVSSPDLTKEVLLTQGVEFGSRTRNVVFDIFTGKGQDMVFTVYGEHWRKMRRIMTVPFFTNKVVQQNREGWEFEAASVVEDVKKNPDSATKGIVLRKRLQLMMYNNMFRIMFDRRFESEDDPLFLRLKALNGERSRLAQSFEYNYGDFIPILRPFLRGYLKICQDVKDRRIALFKKYFVDERKQIASSKPTGSEGLKCAIDHILEAEQKGEINEDNVLYIVENINVAAIETTLWSIEWGIAELVNHPEIQSKLRNELDTVLGPGVQVTEPDLHKLPYLQAVVKETLRLRMAIPLLVPHMNLHDAKLAGYDIPAESKILVNAWWLANNPNSWKKPEEFRPERFFEEESHVEANGNDFRYVPFGVGRRSCPGIILALPILGITIGRMVQNFELLPPPGQSKVDTSEKGGQFSLHILNHSIIVMKPRNC | 1.1 ± 0.09 | 1.1 ± 0.09 | 83 ± 2 |  | 380 ± 7 | 380±7 | 380 ± 7 | 83±2.0 min^1 and 83±2 min^1

Reference: US20040137643A1, “Immunodetection and quantification methods” (priority 2002, published 2004)
